From patent US20240293499A1 (SUNNYBROOK RESEARCH INSTITUTE, published 2024) come the findings set out here.

Experiment [1] has as its target T1, hVISTA-Fc (produced in house) (human, UniProt Q9H7M9 33-194, limits assumed).
T1 construct: Analyte in the SPR of the nanobodies; not shown: Fc
T1 sequence (looked up): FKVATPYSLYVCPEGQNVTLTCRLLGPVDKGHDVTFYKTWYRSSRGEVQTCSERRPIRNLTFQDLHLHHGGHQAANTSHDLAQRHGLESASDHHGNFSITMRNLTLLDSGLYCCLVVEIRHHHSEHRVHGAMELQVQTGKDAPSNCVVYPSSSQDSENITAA
As to the kind of experiment: SPR (BIAcore T200), single-cycle kinetics; Nb captured on anti-His chip, hVISTA-Fc as analyte; 1:1 Langmuir fit. Here is the method:
(§1) Binding kinetics of mAbs and Nbs to hVISTA and mVISTA were obtained by surface plasmon resonance (SPR) using a BIAcore T200 (Cytiva) and HBS running buffer (20 mM of HEPES pH 7.4, 150 mM NaCl, 0.005% Tween-20, 3.4 mM EDTA). Briefly, anti-histidine antibodies were immobilized on a CM5 chip (29149604; Cytiva) using the His capture kit (28995056; Cytiva) following manufacture's protocol. For mAbs, VISTA was captured by flowing […] of hVISTA-COMP-his or mVISTA-COMP-his at a flow rate of 30 μL/min. Sensorgrams were collected using single-cycle kinetics covering five mAb concentrations (1:2 serial dilutions). For Nbs, solutions of each nanobody ([…]) were flown over an anti-histidine-coated chip. Five concentrations (1:2 serial dilutions) of hVISTA-Fc (produced in house) were then injected at a flow rate of 30 μL/min. KD, Kₒₙ, and Koff were calculated by analyzing the sensorgrams with a 1:1 Langmuir binding model²³ after subtracting reference sensorgrams.
(In general: Surface plasmon resonance follows binding to a sensor surface in real time, without labels.)

Experiment [2] deals with T1, hVISTA-Fc (produced in house). Put plainly: SPR (BIAcore T200), single-cycle kinetics, Nb captured on anti-His chip, hVISTA-Fc injected at 1.9, 3.8, 7.5, 15, 30 nM, 1:1 fit. Here is the method: as §1
For experiment [3], the target named is T2, mVISTA-COMP-his, pentameric form comprising the extracellular IgV domain of murine VISTA (mouse, UniProt Q9D659 33-191).
T2 construct: domain: extracellular IgV domain; Captured on an anti-histidine chip for SPR of the mAbs; also called recombinant mouse VISTA; not shown: his tag
T2 sequence (Q9D659 whole entry, looked up): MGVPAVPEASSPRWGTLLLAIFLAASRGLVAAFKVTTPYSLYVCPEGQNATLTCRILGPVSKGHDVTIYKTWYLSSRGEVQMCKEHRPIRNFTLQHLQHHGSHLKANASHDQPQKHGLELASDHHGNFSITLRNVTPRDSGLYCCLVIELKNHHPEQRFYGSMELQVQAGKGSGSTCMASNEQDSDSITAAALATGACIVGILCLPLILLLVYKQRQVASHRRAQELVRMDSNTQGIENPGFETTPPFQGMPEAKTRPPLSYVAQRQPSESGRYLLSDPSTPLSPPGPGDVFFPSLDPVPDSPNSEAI
Put plainly: SPR (BIAcore T200), single-cycle kinetics; mVISTA-COMP-his captured on anti-His chip, mAb as analyte; 1:1 Langmuir fit. Here is the method:
as §1

The target of experiment [4] is T3, hVISTA-COMP-his, pentameric form comprising the extracellular IgV domain of human VISTA (human, UniProt Q9H7M9 33-194).
T3 construct: domain: extracellular IgV domain; not shown: his tag
Put plainly: SPR (BIAcore T200), single-cycle kinetics, hVISTA-COMP-his captured on anti-His chip, mAb injected at 20, 40, 80, 160, 320 nM, 1:1 fit. Here is the method:
as §1

For experiment [5], the target named is T3, hVISTA-COMP-his, pentameric form …. Put plainly: SPR (BIAcore T200), single-cycle kinetics; hVISTA-COMP-his captured on anti-His chip, mAb as analyte; 1:1 Langmuir fit. Here is the method: as §1
The target of experiment [6] is T2, mVISTA-COMP-his, pentameric form …. Put plainly: SPR (BIAcore T200), single-cycle kinetics, mVISTA-COMP-his captured on anti-His chip, mAb injected at 20, 40, 80, 160, 320 nM, 1:1 fit. The protocol: as §1
Experiment [7] concerns the target T4, human VISTA on primary human immune cells (CD14+CD16- classical monocytes of PBMCs) (human, UniProt Q9H7M9 33-311).
T4 construct: whole, on cells; Native protein on donor cells; also called hVISTA
T4 sequence (looked up): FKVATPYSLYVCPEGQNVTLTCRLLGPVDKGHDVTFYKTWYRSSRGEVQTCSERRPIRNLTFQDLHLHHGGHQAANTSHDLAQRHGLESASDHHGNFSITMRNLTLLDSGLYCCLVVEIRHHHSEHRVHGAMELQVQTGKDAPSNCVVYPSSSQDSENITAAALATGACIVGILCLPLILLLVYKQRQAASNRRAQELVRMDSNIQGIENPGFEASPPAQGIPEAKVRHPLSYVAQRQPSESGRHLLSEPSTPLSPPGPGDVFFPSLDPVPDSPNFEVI
Put plainly: flow cytometry on human PBMC, gate CD14+CD16- monocytes, ΔMFI against isotype control, 5 donors; representative histogram against mIgG. The protocol:
(§2) Binding of mAbs and Nbs to human and murine immune cells were tested using human PBMCs and mouse splenocytes. For binding on human cells, whole human blood was obtained from donors in accordance with guidelines set forth by the Sunnybrook Research Ethics board (REB approval number 443-2017). Human peripheral blood mononuclear cells (PMBCs) were isolated from whole blood using Ficoll Paque PLUS (1.077 g/ml) (17144003; Cytiva). PBMCs had their Fc receptors blocked with Human TruStain FcX (422301; BioLegend) then incubated with 2.5 μg of mAb, mouse IgG1 (401408; BioLegend), or rat IgG2a (400565; BioLegend) or 15 μg Nb for 1 hour at 4° C. After washing with PBS, the PBMCs were incubated with secondary antibodies (1 μL; FITC anti-mouse IgG1, FITC anti-HA, or FITC anti-rat IgG2a; 406605, 901507, or MRG2a-83; BioLegend) or control FITC anti-VISTA antibodies (clone B7H5DS8; 11-1088-42; eBioscience) for 40 minutes at 4° C. […] Finally, the PBMCs were washed and resuspended in 3 μM DAPI (D1306; Thermo Fisher Scientific) and cytometric profiles recorded using a BD LSR II flow cytometer (BD) maintained by The Centre for Flow Cytometry & Scanning Microscopy (CCSM) at Sunnybrook Research Institute (SRI; Sunnybrook Health Sciences Centre, Toronto, ON, Canada). […]
A general note: Flow cytometry measures light scatter and fluorescence of single cells or particles in a stream.

The target in experiment [8] is T3, hVISTA-COMP-his, pentameric form …. Put plainly: SPR (BIAcore T200), single-cycle kinetics, hVISTA-COMP-his captured on anti-His chip, mAb injected at 2, 4, 8, 16, 32 nM, 1:1 fit. Here is the method:
as §1

The target is the same in experiment [9]. As to the kind of experiment: SPR (BIAcore T200), single-cycle kinetics, hVISTA-COMP-his captured on anti-His chip, mAb injected at 1, 2, 4, 8, 16 nM, 1:1 fit. The protocol: as §1
The target of experiment [10] is T4, human VISTA on primary human immune …. As to the kind of experiment: flow cytometry on human PBMC, gate CD14+CD16- monocytes, ΔMFI against isotype control, 5 donors. Here is the method:
as §2

Experiment [11] deals with T3, hVISTA-COMP-his, pentameric form …. Put plainly: SPR (BIAcore T200), single-cycle kinetics, hVISTA-COMP-his captured on anti-His chip, mAb injected at 0.5, 1, 2, 4, 8 nM, 1:1 fit. The protocol: as §1

B1: anti-hVISTA nanobody hVISTANb1 (VHH)
VHH: QVQLQESGGGLVQPGGSLRLSCAASGSVGTIFSMGWFRQAPGVQREMVATITNSGETNYAAFVKGRFTISRDNAENTVYLQMNSLKPEDTAAYYCNAFDYVGGRTYELPYWGQGTQVTVSS
notes: Llama nanobody made in E. coli WK6, purified by IMAC, detected with anti-HA
Regarding B1, in experiment [1], binding was put at a Kd of 11 nM. In [2], the Kd (in general, the equilibrium constant for the complex coming apart) is 10.8 nM; the koff (as a rule, the first-order rate constant of dissociation) came out at 0.00109 s⁻¹; the kon (in general, a measure of how fast the partners come together) was determined as 102000 M⁻¹ s⁻¹.

B2: rat anti-hmVISTA mAb 7C7 (antibody, V domains shown)
VH: EVQLVESGGGLVQPGRSLKLSCVASGFTFNKYWMSWTRQAPGKGLEWVASITNSGGNTYYPDSVKGRFTISRDNAQNTLYLQMNSLRSEDTATYYCTLGVDYWGQGAMVTVSS
VL: DVVMTQTPPSLSVTIGQSVSISCKSSQSLVYSDGKTYLHWLLQSSGRSPKRLIYQVSNLASGVPDRFSGTGSQKDFTLKISRVEAKDLGVYYCAQTTHFPYTFGAGTKLEMK
notes: Variable regions only; Rat IgG2a from hybridoma
For the molecule B2, the Kd in experiment [3] amounted to 51 nM; in experiment [4] it was 49.4 nM; in experiment [5], 49 nM; in experiment [6], 50.5 nM. Besides, the dissociation rate constant (koff) in [4] was 2.2 s⁻¹; in experiment [6], 0.002 s⁻¹. Besides, the figures for the kon in experiment [4] and in [6] were 4.45e+07 M⁻¹ s⁻¹ and 39600 M⁻¹ s⁻¹, respectively.

B3: murine anti-hVISTA mAb 8G10 (antibody, V domains shown)
VH: QVQLQQSGAELVRPGASVTLSCKASGYTFTDYEMHWVKQTPVHGLEWIGAIDPETGGTAYNQKFKGKATLTADKSSSTAYMELRSLTSEDSAVYYCTRWSLRPYAMDYWGQGTSVTVSS
VL: DVVMTHTPLSLPVSLGDQASISCRSSQSLVHNNGNTYLHWYLQKPGQSPKLLIYKVSNRFSGVPDRFSGSGSGTDFTLKISRVEAEDLGLYFCSQSTHVPWTFGGGTKLEIK
notes: Variable regions only, although headed 'Heavy Chain' and 'Light Chain'; Mouse IgG1 from hybridoma
For the molecule B3, the binding result in [7] is given as “binds”. In experiment [8], binding was characterised by a dissociation constant (Kd) of 0.98 nM, the koff came out at 0.000111 s⁻¹ and the kon amounted to 113000 M⁻¹ s⁻¹. Moreover, the affinity in experiment [5], expressed as Kd, was 0.98 nM.

B4: murine anti-hVISTA mAb 7G5 (antibody, V domains shown)
VH: QIQLVQSGPELKKPGETVKISCKASGYTFTNYGMNWVKQAPEKGLKWMGWINTYTGEPTYADDFKGRFAFSLETSASTAYLQINNLKNEDTATYFCARRSNPWPNDYWGQGTSLTVSS
VL: DIQMTQSPSSFSASLGERVSLTCRASQEISGYLSWLQQKPDGTIKRLIYAASTLDSGVPKRFSGSRSGSDYSLTISSLESEDFADYYCLQYASYPWTFGGGTKLEIK
notes: as for B3
Consider B4, for which the Kd came to 0.136 nM in experiment [9] and 0.14 nM in [5]. The binding result in experiment [10] is “binds”.

B5: murine anti-hVISTA mAb 7E12 (antibody, V domains shown)
VH: DVHLQESGPGLVKPSQSLSLTCSVTGYSITSGYYWNWIRQFPGNKLEWMGYISYDGNNNYNPSLKNRISITRDTSKNQFFLKLNSVTTEDTATYYCARGDYGSEAMDYWGQGTSVTVSS
VL: DIRVTQSPASLAVSLGQRATISCRASKSVSTSGYSYMNWYQQKPGQPPQLLIYLASNLESGVPARFSGSGSGTDFTLNIHPVEEEDAAIYYCQHSRELPWTFGGGTKLEIK
notes: Mouse IgG1 purified from hybridoma
Turning to B5, the Kd in experiment [5] was determined as 0.44 nM. Besides, in experiment [11], the dissociation constant Kd amounted to 0.442 nM, the koff amounted to 0.000123 s⁻¹ and the kon stood at 279000 M⁻¹ s⁻¹.
